Here are results for 19 sequences from the DeepSol protein solubility set.

The series can be described thus: soluble on expression in E. coli; label from the status in PepcDB or PDB records.
With “MGHHHHHHSHMANSAGSMANSAGSMATLSDFFPEADPVLEKNYRRCVDLAINMSWSVPGQFKLVETPINSFLLVGDVLPNDMIESKPVNSTNLVNIPFPLSTLGVSTSKKSVEVTSYKSETEKFQEAASISEHSIRGSIVYEGLTWITAMGYNVTDFLVNMLEQMKCPENWSGLHPVDPLACVWLLYFGPKSRCSEIACVSELFIGKKGPILLPPHMYRGDTSVNSFAHHLCQYVKHLYADYEPEILSCPLDITRVKGCLSDLRQVAESCVFLSQRCLLCHLYKQNAAVSKNILTASDCIILGGSGKSLLGTYMKSYKDPATHDSILLPTYNLEAIVNYILEHYGHETAGQEINWE”, the “soluble on expression in E. coli” value is given as “not soluble”. As to “RDLKSEVKKRNIQLQFDYPEILSKILLYSNAGLSIKSSIERIVRQYEDEKKKNPKEYHYAYEELKMATVKMKSGVSEINAINQYGERCGLHNYIKLANIIEQNIRRGTGELSFALENELNRALVERKNTALKRGSEISTK”, the “soluble on expression in E. coli” value is on record as “not soluble”.

On to “ELLVVTGMSGAGKSLVIQSLEDMGFFCVDNLPPVLLPKFVELMAQGNPSLQKVAIAIDLRGKELFKSLVKEIDIIKSRNDVILDVMFLEAKTEKIISRYKESRRAHPLNEQGQRSLIDAINEEREHLSEIRSIANYVIDTTKLKPKELKQRISKFYLDENFETFTINVTSFGFKHGIQMDADLVFDVRFLPNPYYVEELRPFTGLDEPVYNYVMKWKETQIFFDKLTDLLKFMIPGYKKEGKSQLVIAIGCTGGQHRSVALAKRLAEYLNEIFEYNVYVHHRDAHIE”, for which the “soluble on expression in E. coli” value is recorded as “not soluble”. Take “MVNNEYQQLNTLVESDDEADLVIANLVKQLNELKQILVSLDNQEASATAVTDKKEEEYNQNQSSFHNFSKETLQKQAKRGFLLLERCSLVGLQQLELEYVNLLGRSFDSYQQKTELLNNLKELVDEHFSDTEKIINTLEKIFDVIGGSEYTPVLNSFFNKLLSDPDPIQREIGLRQFIITLRQRFKKLSQKIDSSLKQIETEAKIATEQVQNSEVMFGPPDIANDHELNLNWPDSETDAILSSMENELEAALLAKHQEEPPLIVTPPSLIKPTVSQPEVEVVTPTNNTNFQPQVDLKPTDLKKQQKKKPLNFITRPVFKSNLPPKLSKDDIVHYAHQLLEKNTHNE”: the “soluble on expression in E. coli” value is “soluble”. Consider “MGSDKIHHHHHHMPINSYENYVLSWRPVKERLTRPYYQSLVQQLEADILSGALQKNVKLPSQRELADYLDLNFTTIGQAYKHAMEKGLLYTNIGCGTFVSPNAFHSITISTNQVADHLIDLGLVSSFDMCNQRILPFIESVSKNAALNSLLNYRDPLGTHFQRATAAEWLQTQGVRTNAEEVAIVSGVQNGLAVTLAAAFSPGQRIAVDRYTYSNFIELAQLYHLEIVPIGYDSEGMDPEHLLQECKKKKIHGIFLMPACNNPIGFQMSSARRMTLAEIIQQEHLWVIEDDIHSFLTTYAQQAVLPTFQELLPQQTIYLAGMTKFVCTGLRIAYLVFPPLLRQEIERAIFNINVKTSGFDAEIVTQVLRSPVAKELVIEKLALTKQANDLFDTIFGLARPSNPLPYYRTIPLSTEKTAPQIEQEFLQNGVRLFHSSRFTVQNQPDAFLRISLASNQLEVLAKGLTIIQELLPTLNEKKGHSL”, for which the “soluble on expression in E. coli” value is “not soluble”. Take “MGSDKIHHHHHHMNYDDPKKKVGRNIKRLRLKAGIKSQAALAELCGWKSQSRVGNYEAGTRAVSAIDAETLAKVLNVTPAEILYGENNKDDDFVSMPSAQYSSGPYEEEDPFQLFKPKQELQNAEWHAGFELWDGDTPLRDDEVALPFYREVELAAGSGSTFVQENGGCKLRFAKSTLKKSRVEPSNAACVTVSGNSMLPVLRHGTTVGVDTSKKSIIDGEMYAIDHDGMLRVKMLYRTPGGGIRIKSYNNDEFPDEFIPPEKASDIKIIGWVFWWSVLNVWNN”: the “soluble on expression in E. coli” value is given as “not soluble”. With “MEQQRDFDSALAWHRKAKCAGKAGSADVLPGHDKDANAARVVELCAMCADCPVFEQCGREAIAEPFLTLGVVRAGIPDTTQSKSKQKKLLQQVIDEGVPPPVALIMALKDRKGYEGALVGLAGLYEAYRGVYV”, the “soluble on expression in E. coli” value is “not soluble”. Regarding “MFIYCIPLISQSMIPMALDKTINVMKVTGMFAATYFTGDNRTPFFAFIICLKSFKLENMDQPPKNKSNIFPAVEDSLLLEHHHHHH”, the “soluble on expression in E. coli” value is listed as “not soluble”. In the case of “MSLSAELLTSRDQQNFVVRATRADDVTIDVTSEAKWSVGDEKIVKLQGTTLLPAADGETKLTIEYSGFKSEVPVKVEQAGAERAVSFKQDVMPVFMRSGCNTGSCHGAARGKDGFRLSLFGFDPNGDYDRVTRELAARRINLAVPEASLLMEKAIGSVPHTGGKLFDQDSEYYSTLLRWLETGAQRDASEPPLCEKIEIYPPKAVLEGEGAKQQFIVKGFYADGTTRDITDLAVFLTSNDNSVPVGKDGMAVAANRGEAFVMARFDTHTVGSQVIVLPKDLNYEKPAIEGNYIDKLVGAKLHKLRITPSGLCTDEEYLRRVTIDITGQLPSEEEYAEFMADQSADKRVKLVDRLLERKEFAEIWAMKWAQLLMIKSENNRVSYKSAFLYNSWLQEKIANGVPLDEMVREMLGATGGTFSNPPTNFYEIERDTLKTAENVAQVFMGIRTQCAQCHNHPFDRWTMDDYYSFAAFFAQVGRKNAEDEREGHHHHHH”, the “soluble on expression in E. coli” value is given as “not soluble”. As for “MGSDKIHHHHHHMKHAFLIIAHNEYPVLEVLLSMLDDERNDIYLHIDKRATELFQQIKKVKMQKAGFYLIENPIKVYWGDISQVQVEYLLFETALSHGPYAYYHLLSGTDLPIKSQDYIHAFFQQNAGKEFVGFWQDAAHQRDLERKVFRYYFFTKRLKDKEHLLHGITALIRNLILAVQKISHYRRKQTFEFKKGGNWISITENAVKYLLQYKEIVLNRMKYTLCADEIFIQTILWNSPFRERMHCTNNANTGSMREIDWEHGSPYIWQDHDYQTLINSNKIFARKFNSNQMGVVYKIQKLYLKQVPK”, the “soluble on expression in E. coli” value was “not soluble”. Then “MAHHHHHHMKRSRFDGKAPSFAPAVTMHPQQQQRIEERGANNRVVVNSPYGCSRARYGWGMPFHTPLLAYVPGCPAIHIGISSLSGVPGRDRRMKTLFAQYAKKFNSLEHCYTFHNMGEETMWKNWRDMCASQLVASSSHSPASLGCVQTSDNGNQKSPPFIFSIKANQYLTHTRMLAIDDKSEEHIMHFFVNRCSILGRHLGPVLLQLPPQFQKNHVNMERIEAVAARIPKAFSVAVEFRHRSWYDEGVYALLRRLGWALVVAHHHDDPTASVHVDTGVDFMYVRLHGPIGLHIGDYGPVILSQWAERVVDYICGGVVSAAAADQSQPMAVNAHGREVYFFFNNSDSHVGGTTSSTVDATFLAQRVGELLAEKSRSCMVADSQSNSCSDVDVVTIISE”, with “soluble”; and “MGSDKIHHHHHHMVKVVKFGGSSLANAAQYQKVIEILRADPERRIVVVSAPGKRFKDDVKVTDLLIKYANASGENVKVARQAVLDRYQEIADAYHVSDSDFEQINVHLIDLANLHHANKACRLAHFKAAGERLNAILMALVLKKFNVTARFVDPKQLGIKAHGDYNNAILDQHSYAQIEAVCSNLLDEAEYLVVPGFYAYNQNGEVCTFSRGGSDITGAILARGFQAQLYENFTDVDSIYSADPKIIAQPHPIREMTYREMRELAYAGFSVFHDEAIIPAIEAQVPIVIKNTDHPNLPGTVIEPEQNYASDLEITGVASSSRFAALYIHKYLLNREVGFTLKLLKILYRYDISYEHMPSGIDDLTIIFNQNQITDEILPSLLSDIREELHTDQLEWIDDYAILMVVGEGMRDKVGVVDRIVNALARKQIGIQMINQGASRISTMLGVHQNQVNQAVREIYREFFKNKGRAD”, with “not soluble”; and “MAKEVWRFIDSGYCPPAFNMALDEALLDWHSEGKIPPTIRFYGWNPPTLSIGYFQKVEKEIDLEAVKRHGLGFVRRPTGGRGVLHDKELTYSVIVSESHPAMPKTVTEAYRVISQGILEGFRYLGLDAYFAVPRTEEEKADLRSPRSAVCFDAPSWYELVVEGRKIAGSAQTRQKGVILQHGSILLDLDEDLLFSLFKYPNERVKERLQRDFKKKAVAINELTSRTVTIEEAKEAFYKGFEKGLNIVLEPYTLTAEERAYVEELARTKYESDEWNFKR”, with “not soluble”. As to “MSLSRQIRYYGTGTQKAYDELKQVLPEARILRMDVDTTKRKGAHEKILTKFGRHEADILLGTQMIAKGLDFPNVTLVGVLNADTSLNLPDFRSSERTFQLLTQVAGRAGRANKPGEVLIQTYNPNHYAIQLAREQDYEAFYRYEMRIRKALSYPPYYFTVGLTLSHKDEQEVIKKSYEIVTLIKEGLTDKIKILGPTPKPVARTHNLYHYQIIIKYRFEDQLEIVLNHILDLTQAKENKKLRLIIDHEPQSEGHHHHHH”, the “soluble on expression in E. coli” value is on record as “not soluble”. In the case of “MGSDKIHHHHHHMDINFEYYKIFYYVAKYCNFTKAARALGNSQPNVTRAMNNLEQQINSILFIRNNRGVQLTPEGERLYAHVSAAMSQILAAEEELSDSIGLSHGSVSIGASETALNIYLLDRLKPFHMAYPGIRLKIYNHSTPQAINAVKNGMIDFAVVSTPAEVEAPLKMIKLGSFQEILVGGTTFTALGSQTLSLKELHNYPLIGLGRETMTFQFFNRLFMSHGLEFAPDTETATTDQILPLVKSELGLAFMPKPMAEAAIANREIVEIALEEEIPQRNICMVYDIHQPISAAARELKKVISDSHKV”, the “soluble on expression in E. coli” value is “not soluble”. Turning to “MGHHHHHHSHAQHNYVISLTTEQKRRKHITEEFGKQNIPFEFFDAITPDIIEETAKKFNITLDRSPKAKLSDGEIGCALSHIVLWDLALENNLNYINIFEDDIHLGENAKELLEIDYISDDIHVLKLEANGKMFFKQPKSVKCDRNVYPMTVKQSGCAGYTVTAKGAKYLLELVKNKPLDVAVDSLV”, the “soluble on expression in E. coli” value is “soluble”. “MIRSMTAYARREIKGEWGSATWEMRSVNQRYLETYFRLPEQFRSLEPVVRERIRSRLTRGKVECTLRYEPDVSAQGELILNEKLAKQLVTAANWVKMKSDEGEINPVDILRWPGVMAAQEQDLDAIAAEILAALDGTLDDFIVARETEGQALKALIEQRLEGVTAEVVKVRAHMPEILQWQRERLVAKLEDAQVQLENNRLEQELVLLAQRIDVAEELDRLEAHVKETYNILKKKEAVGRRLDFMMQEFNRESNTLASKSINAEVTNSAIELKVLIEQMREQIQNIE”: the “soluble on expression in E. coli” value is “not soluble”. Take “MFRTITSRLAFSVRQAEETVKPRIAYAQRSGRRIKEKVALMQAKRKEAGETGAPEKPGKFVLKTGKGTRDYGPAQSALRNSVLQTVTETFNRYGAETIDTPVFELRDVLMGKYGEEGGKLVYDLQDQGGELLSLRYDLTVPFARYLAMNKITNITRYQIAKVYRRDQPVMSRGRYREFYQCDFDIAGQYDLMLPEAECLGIVDELLTKLEIGEFFINLNHRLILEGMFAVSGIPAKDFKTICSSVDKLDKTPWEDVEQEMINEKFLTKEQTGKLGELVRFRELNSDLNNLELLEKMSQLPDLGQNDKFKKGAEELKVLIEYLNVDGVTTVRYEPSLARGLDYYTGAIYEAVAPKALEGTAVENSEDTAGQPVGVGSVAAGGRYDGLVKMFDSKANVPCCGVSFGIERLFAIMEARQKVAIRTTQTEVYVASAQKNLVRDRKKLVKMLRSAGIKTEMALKANPKLLTQFQYAEERRIPLAIVIGEQELKDGVVKLRNVVTRDEQTIKLDQLITAVRDTLAAL”: the “soluble on expression in E. coli” value is “not soluble”. As to “MGSDKIHHHHHHENLYFQGLLPKYNILTEDQVQKIHENTMKILEEIGIEFEYEPALEVFRREGQKVEGKRVYLTREFVESKLKSAPAEFTLHARNPENNVVIGGDNIVFMPGYGAPFIYELDGSRRKTTLQDYENFAKLAGASKNMHLSGGTMAEPQDIPDGVRHLQMLYSSIKNSDKCFMGSAEGKERAEDSVEIAAILFGGKDVIKEKPVLVSLINSLTPLKYDERMLGALMAYAEAGQAVIIASLVMAGSTGPASLAGTLSLQNAEVLAGISLAQSINPGTPVIYGSTSALSDMRSGSLSIGSPECALFISASAQLARFYGVPSRSGGGLNDSKTVDAQAGYESMMTLMAANLTGVNFVLHTAGILQYFMAMSYEKFIMDDEIAGMLLHYMKGYTFDEDGMAFDVIEKVGPGGHFLTQKHTRKNHKREFYTPTLSDRSAYDTWAKEKLETKQRAHARWQQILANYVPPALDPEIDAKLQAFIAQRGKEVGEE”, the “soluble on expression in E. coli” value is listed as “soluble”.
